Source: article PMC6149797, “Rational Engineering of a Flavoprotein Oxidase for Improved Direct Oxidation of Alcohols to Carboxylic Acids” (Molecules : A Journal of Synthetic Chemistry and Natural …, 2017)

Key:
O=[N+]([O-])c1ccc(CO)cc1 = system: T1, O=[N+]([O-])c1ccc(CO)cc1; assay: coupled HRP H2O2 assay, Michaelis-Menten; assay type: biochemical, Methylovorus sp. MP688; conditions: O2 (co-substrate), 100 mM sodium phosphate pH 7.0, 30 °C
T1 construct: N-terminal His-SUMO fusion (Champion pET SUMO), tag not cleaved; E. coli BL21(DE3)
Text: (§1) coupled HRP H2O2 assay, Michaelis-Menten on 5-(hydroxymethyl)furfural oxidase (HMFO)

[1] = system: T2, O=Cc1ccc([N+](=O)[O-])cc1; assay: coupled HRP H2O2 assay, Michaelis-Menten; assay type: biochemical, Methylovorus sp. MP688; conditions: O2 (co-substrate), 100 mM sodium phosphate pH 7.0, 30 °C, aldehyde oxidised via its gem-diol hydrate
T2 construct: N-terminal His-SUMO fusion (Champion pET SUMO), tag not cleaved; E. coli BL21(DE3)
Text: as §1

[2] = substrate: O=Cc1ccc([N+](=O)[O-])cc1; assay: coupled HRP H2O2 assay, Michaelis-Menten; assay type: biochemical, Methylovorus sp. MP688; conditions: O2 (co-substrate), 100 mM sodium phosphate pH 7.0, 30 °C, aldehyde oxidised via its gem-diol hydrate
Text: as §1

purified protein = substrate: O=[N+]([O-])c1ccc(CO)cc1; assay: purified protein; conditions: O2 (co-substrate), 100 mM sodium phosphate pH 7.0, 30 °C

Row | Molecule | Km (O=[N+]([O-])c1ccc(CO)cc1) [µM] | kcat (O=[N+]([O-])c1ccc(CO)cc1) [s⁻¹] | kcat/Km (O=[N+]([O-])c1ccc(CO)cc1) [M⁻¹ s⁻¹] | Km [1] [µM] | kcat [1] [s⁻¹] | kcat/Km [1] [M⁻¹ s⁻¹] | Km [2] [µM] | kcat [2] [s⁻¹] | kcat/Km [2] [M⁻¹ s⁻¹] | Km (purified protein) [µM] | kcat (purified protein) [s⁻¹] | kcat/Km (purified protein) [M⁻¹ s⁻¹]
1 | 5-(hydroxymethyl)furfural oxidase (HMFO) (Methylovorus sp. MP688; V465T) | 30 | 1.7 | 57000 |  |  |  |  |  |  |  |  | 
2 | 5-(hydroxymethyl)furfural oxidase (HMFO) (Methylovorus sp. MP688; W466H) | 400 | 0.02 | 50 | 160 | 0.003 | 20 |  |  |  |  |  | 
3 | 5-(hydroxymethyl)furfural oxidase (HMFO) (Methylovorus sp. MP688) (protein, N-terminal His-SUMO fusion (Champion pET SUMO), tag not cleaved; E. coli BL21(DE3)) MTDTIFDYVIVGGGTAGSVLANRLSARPENRVLLIEAGIDTPENNIPPEIHDGLRPWLPRLSGDKFFWPNLTIHRAAEHPGITREPQFYEQGRLLGGGSSVNMVVSNRGLPRDYDEWQALGADGWDWQGVLPYFIKTERDADYGDDPLHGNAGPIPIGRVDSRHWSDFTVAATQALEAAGLPNIHDQNARFDDGYFPPAFTLKGEERFSAARGYLDASVRVRPNLSLWTESRVLKLLTTGNAITGVSVLRGRETLQVQAREVILTAGALQSPAILLRTGIGPAADLHALGIPVLADRPGVGRNLWEHSSIGVVAPLTEQARADASTGKAGSRHQLGIRASSGVDPATPSDLFLHIGADPVSGLASAVFWVNKPSSTGWLKLKDADPFSYPDVDFNLLSDPRDLGRLKAGLRLITHYFAAPSLAKYGLALALSRFAAPQPGGPLLNDLLQDEAALERYLRTNVGGVWHASGTARIGRADDSQAVVDKAGRVYGVTGLRVADASIMPTVPTANTNLPTLMLAEKIADAILTQA |  |  |  |  |  |  | 310 | 0.3 | 970 | 260 | 7.4 | 28000
